Test results from US20040058870A1 (Bayer, published 2004).
Like-named read-outs stand apart in the source and are kept apart here. Ends that are not written are not given here.

T1: VPAC2 receptor (human, UniProt P41587 24-438)
T1 sequence (looked up): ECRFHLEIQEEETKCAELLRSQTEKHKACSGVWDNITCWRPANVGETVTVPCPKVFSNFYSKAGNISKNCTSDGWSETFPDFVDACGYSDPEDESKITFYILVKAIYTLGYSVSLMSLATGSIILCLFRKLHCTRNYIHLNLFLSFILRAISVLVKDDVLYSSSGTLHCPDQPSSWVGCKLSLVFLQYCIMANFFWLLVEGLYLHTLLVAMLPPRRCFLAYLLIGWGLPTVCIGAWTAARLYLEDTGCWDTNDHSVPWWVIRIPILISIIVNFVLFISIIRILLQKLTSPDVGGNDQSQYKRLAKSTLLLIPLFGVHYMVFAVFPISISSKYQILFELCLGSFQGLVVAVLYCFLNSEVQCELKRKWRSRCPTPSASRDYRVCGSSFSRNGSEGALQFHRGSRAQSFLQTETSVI

T2: VPAC1 receptor (UniProt P32241 31-457, limits assumed)
T2 sequence (looked up): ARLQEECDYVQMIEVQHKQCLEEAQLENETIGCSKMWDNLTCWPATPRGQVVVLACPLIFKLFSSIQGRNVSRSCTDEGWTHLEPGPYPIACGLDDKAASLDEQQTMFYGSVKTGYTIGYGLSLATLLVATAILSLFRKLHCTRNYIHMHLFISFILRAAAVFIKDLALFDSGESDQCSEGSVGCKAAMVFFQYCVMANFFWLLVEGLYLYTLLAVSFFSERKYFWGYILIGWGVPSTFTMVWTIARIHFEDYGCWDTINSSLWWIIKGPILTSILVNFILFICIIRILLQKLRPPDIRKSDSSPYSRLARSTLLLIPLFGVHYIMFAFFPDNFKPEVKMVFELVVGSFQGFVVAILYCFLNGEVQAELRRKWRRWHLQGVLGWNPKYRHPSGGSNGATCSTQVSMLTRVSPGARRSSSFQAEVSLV


Columns and labels:
Test in all cases: cell-based or functional assay
VPAC2 receptor [1] = biological target: T1, VPAC2 receptor
VPAC2 receptor [2] = biological target: T1, VPAC2 receptor; remark: listed apart in the source
VPAC1 receptor = biological target: T2, VPAC1 receptor
VPAC2 receptor [3] = biological target: T1, VPAC2 receptor; remark: listed apart in the source

Molecule	EC50 (nM), cAMP SPA (VPAC2 receptor [1])	EC50 (nM), cAMP SPA (VPAC2 receptor [2])	EC50 (nM), cAMP SPA (VPAC1 receptor)	maximal level of receptor activation relative to PACAP-27, cAMP SPA (VPAC2 receptor [3])
PACAP-27 (from UniProt P18509 132-158) (peptide)	0.09 nM	–	–	–
Ac-HTDAVFTDQYTRLRKQVAAKKYLQSIKQKRY (ends and bridges not checked) [P8]	–	0.19 nM	130 nM	100%
HTEAVFTDQYTRLRKQVAAKKYLQSIKQKRY [P7]	–	7.81 nM	> 1000 nM	100%
HSDAVFTDQYTRLRKQVAAKKYLQSIKQKRY [P5]	–	–	232 nM	–
HSDAVFTDQYTRLRKQVAAKKYLQSIKQKRYC (ends and bridges not checked) [P12]	–	–	> 1000 nM	–
HSDAVFTDQYTRLRKQVAAKKYLQSIKQKRYC (43 kD PEG on the C-terminal Cys via maleimide (thioether) linkage) [P12 plus 43 kD PEG]	–	–	> 1000 nM	–
HSDAVFTDQYTRLRKQVAAKKYLQSIKQKRYC (22 kD PEG on the C-terminal Cys via maleimide (thioether) linkage) [P12 plus 22 kD PEG]	–	–	> 1000 nM	–
